Test: yeast display, Sf9 membrane polyspecificity reagent, FACS + sequencing; frameworks hold sequencing errors
Outline: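 Synthetic nanobody libraries on Saccharomyces cerevisiae BJ5465 were galactose-induced for 36–48 hours, stained 1 hour at 4 °C with 10% biotinylated, detergent-solubilized Sf9 membrane reagent and enriched on streptavidin microbeads. FACS then separated cells into low and high (top ~1%) gates by anti-HA (expression) and streptavidin (reagent binding) fluorescence. Genes were colony-PCR amplified, MiSeq 2 × 250 sequenced and CDR-length filtered. A clone's polyreactivity label is that of its gate of origin.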

Question: For “QVQHVESGGGLVQAGGSLRLSCAASGVIIIGNAVGWYREAPVKEWEFVASIRGVGSTNYADSVKGRFTISRDNAKNTVYVQMNSLKPADSAVYYCATSVDRALYTQTRGDYEYWGQGTQVTVSS”, which “polyreactivity (PSR sort gate)” value is on record?
Answer: low polyreactivity

Question: Which “polyreactivity (PSR sort gate)” value does the source give for “QVQHVESGGGLVQAGGSLRLSCAASGYTFTINTMGWYRQAPGKERELVAAITWRGGSTYYADSVKGRFTISRDNAKNTVYLQMNSLKPEDSAVYYCNKDYYITTTTFDYWGQGTQVTVSS” here?
Answer: low polyreactivity

Question: For “QVQHVESGGGLVQAGGSLRLSCAATGRTFRHYAMGWYRLAPGKERELVAAISGSGGRTYYADSVKGRFTISRDNAKNTVYLQMISLKPEDTAVYYCNAYTWTYGEYEYWGQGTQVTVSS”, which “polyreactivity (PSR sort gate)” value is on record?
Answer: high polyreactivity

Question: For “QVQHVESGGGLVQAGGSLRLSCAAYGSIFGWYGMGWYRQAPGKERELVAAITRGGSTYYADSVKGRFTISRDNAKNTVYLQMISLKPEDTAVYYCAKRSGQQYGGYGYWGQGTHVTVSS”, which “polyreactivity (PSR sort gate)” value is on record?
Answer: low polyreactivity

Question: With “QVQHVESGGGLVQAGGSLRLSCAAYGSTFGVNAMGWYRQAPGKEREFVAAITWSSTSTYYADSVKGRFTISRDNAKNTVYLQMNSLKPEDTAVYYCAARQRIYRHYAYGYWGQGTQLTVSS” as the sequence, how does the “polyreactivity (PSR sort gate)” value read?
Answer: high polyreactivity

Question: Which “polyreactivity (PSR sort gate)” value does the source give for “QVQHVESGGGLVQAGGSLRLSCASSGSIFYFYAKGWYRQAPGKERELVAAISWSGGSTYYADSVKGRFTISRDNAKNTFYLQMNSLKPEDTAVYYCNAADYWYWENDYWGQGTQVTVSS” here?
Answer: low polyreactivity

Question: For “QVQHVESGGGLVQAGGSLRLSCASSGSTSGIHAMGWYRQAPGKDRELVAAIRLSGGRTYYADSVKGRFTISRDNAKNTVYLQMNSLKPEDTAVYFCNALYRQARIRATYDYWGQGTQVSVSS”, which “polyreactivity (PSR sort gate)” value is on record?
Answer: high polyreactivity

Question: With “QVQHVESGGGLVQAGGSLRLSCSASGFTFYSYAMGWYRQAPGTERELLAVISKRGGSTRYADSVKGRFTISRDNAKNSVYFQMNSLKPEDTAVYYCNADQHSMTYNEFDYWGQGTQVTVSS” as the sequence, how does the “polyreactivity (PSR sort gate)” value read?
Answer: low polyreactivity

Question: With “QVQHVESGGGLVQAGGSLRLSSAPSGRTFAYYARGWYRQAPGKERELVAAISNGGSTYYADSVKGRFTISRDNAKNTVFLQMNSLKPEDTAVYFCNAYYSDLYDYWGQGTQVTVSS” as the sequence, how does the “polyreactivity (PSR sort gate)” value read?
Answer: low polyreactivity

Question: With “QVQHVESGGGLVQAGGSLRLTCAASGITFYRYAMGWYRQATGKEREFVAAINYGGSSTRYADSVKGRFTISLDNAKNSVYLQMNSLKPEDTAVYYCAVEKRYPRRRYDYWGQGTQVTVSS” as the sequence, how does the “polyreactivity (PSR sort gate)” value read?
Answer: low polyreactivity

Question: For “QVQHVESGGGLVQAGGSLRLTCAASGSTFVNYAMGWYRQAPGKERELVAAITANGGRTYYADSVKGRFTISRDNAKNTVYLQMNSLKPEDTAVYYCNTESNLYRRRRNYWGQGTQVTVSS”, which “polyreactivity (PSR sort gate)” value is on record?
Answer: low polyreactivity

Question: Which “polyreactivity (PSR sort gate)” value does the source give for “QVQHVESGGGLVQAGGSLRLTCAASGTIFRYYTMRWYRQAPGKERELVASISRGGNTYYADSVKGRFTISRENAKNTVYLPMNSLKPEDTAVSYCAALPGSFFQAHFYYWGQGTQVTVSS” here?
Answer: low polyreactivity

Question: With “QVQHVESGGGLVQAGGTLRLSCAASGSTFLINTMGWYRQAPGKERELVAAISRSGGRTYYADSVKGRFTISRDNAKNTVYLQMNSLKPEDTAVYYCAAAYVYSNSYAFGSELYSWGQGTQVTVSS” as the sequence, how does the “polyreactivity (PSR sort gate)” value read?
Answer: high polyreactivity

Question: For “QVQHVESGGGLVQAGVSLRLSCAASGSIFPYNAMGWYRQAPGKERELVATISSGGSTNYADSVKGRFTISRDNAKNTVYLQMNSLKPEDTAVYYCAGDVIVFYYAPNYWGDIEYGYWGQGTQVTVSS”, which “polyreactivity (PSR sort gate)” value is on record?
Answer: low polyreactivity

Question: With “QVQHVESGGGLVQAVGSLRLSCAASGRTFNNYAMGWYRQAPGKERELVAAISWRSDSTYYADSVMGRFTISRDNAKNTVYLQMNSLKPEDTAVYYCAASQYPLFWYDYWGQGTQVTVSS” as the sequence, how does the “polyreactivity (PSR sort gate)” value read?
Answer: low polyreactivity

Question: With “QVQHVESGGGLVQEGGSLRLICSASGIIFSWYAMGWYRQAPGKERELVATISGGGGSTYYADSVKGRFTISRENAKNTVYLQMNRLKPEDTAVYYCAADYWNFNWRYKLYRPYDYWGQGTQVTVSS” as the sequence, how does the “polyreactivity (PSR sort gate)” value read?
Answer: high polyreactivity

Question: With “QVQHVESGGGLVQEGGSLRLSCGASGRTFSYYAMGCYRQPPGKEREMVAAIRATGTTTYYAVSVKGRFTISRDNAKITFYFQMNSLKQDDTAVYYCAARGSRYRSSGYEEWGQGTQVTVSS” as the sequence, how does the “polyreactivity (PSR sort gate)” value read?
Answer: high polyreactivity

Question: With “QVQHVESGGGLVQSGGSLRLSCAASGRIFDYNAMGWSRQAPGKERELVAAITSSSGSSTYYADSVKGRFTISRDNAKNTVYLQMNSLIPVDTAVYYCNAGGSDIYLSPFDYWGQGTQVTVSS” as the sequence, how does the “polyreactivity (PSR sort gate)” value read?
Answer: low polyreactivity

Question: Which “polyreactivity (PSR sort gate)” value does the source give for “QVQHVESGGGVVQAGGSLRFSCAASGRIFYRYAMGWYRPAPGKERELVAAITIGGRTNYADSVKGRFTISRDNAKTTVYLQMNSLKPEDTAVYYCAVVLYTRYPPRVRYYYWGQGTQVTVSS” here?
Answer: high polyreactivity

Question: Which “polyreactivity (PSR sort gate)” value does the source give for “QVQHVESGRGLVQAGGSLRLSCAASGRIFNPYAMGRYRQAPGKERELVAAISRGGRTYYADSVKGRFTISRDNAKNTVYLQMNSLKPEDTAVYYCNAGRGLREDDYWGQGTQVTVSS” here?
Answer: low polyreactivity

Question: Which “polyreactivity (PSR sort gate)” value does the source give for “QVQHVESLGGLVQAGGSLRLSCAASGRTFFGYAMGWYRQEPGKERELVAAISSGGRTYFADSVKGRFTMSRDNAKNTVFLQMNSLKPEDTAVYYCAAQYSARYYYWGLGTQVTVSS” here?
Answer: high polyreactivity

Question: For “QVQHVESRGGLVQAGGSLRLSCAASGFTFSRNAMGRYRQAPGKESDLVAAIDSGGSTDYADSVKGRFTNSRDNAKNTVYLQMNSLKPADTAVYYCAKASSATRYVQLRQDYDYWGQGTKVTVSS”, which “polyreactivity (PSR sort gate)” value is on record?
Answer: low polyreactivity

Question: For “QVQHVESRGGLVQAGGSLRLSCAASGRIFGTYGMGRYRQAPGKERELVAAINWRGGSTYYADSVKGRFTISRDNAKNTVYLQMNSLIPEDTAVYYCNARLYRKRLGYWGQGTQVTVSS”, which “polyreactivity (PSR sort gate)” value is on record?
Answer: high polyreactivity

Question: For “QVQHVESRGGLVQAGGSLRLSCAASGSIFNPYDMGWYRPATGKDRELVAAIDWSGGSTYYADSVKGRFTISRDNAKNTVYLQMNSLKPEDSAVYYCAAGYGGWAWNHVSYGGDYWGQGTQVTVSS”, which “polyreactivity (PSR sort gate)” value is on record?
Answer: low polyreactivity

Question: Which “polyreactivity (PSR sort gate)” value does the source give for “QVQHVESRGGLVQAGGSLRLSCAASGSIFSANAMGWYRQAPGKVRELVAAITRGGSTNYADSVKGRFTISRDNAKNTVYLQMNSLKPEDTAVYYCNAEPDPYSSGRVRRDYDYWGQGTQVTVSS” here?
Answer: low polyreactivity

Question: Which “polyreactivity (PSR sort gate)” value does the source give for “QVQHVESRGGLVQAGGSLRLSCAASGSTIGFYAMGWYRQAPGKERELVAGITNGGRTYYADSVKGRFTISRDNAKNTVYLQMISLKPEDTAVYYCIRTPRSKGNYWGQGTQVTVSS” here?
Answer: high polyreactivity

Question: With “QVQHVESVGGLVQAGGSLRLSCAPSGSIFWDNAMGWYRQAPGKERELVAAITSSGDTTYYADSVKGRFTISRDNAKNTVYLQMNSLKQEDTAVYYCAKVFGPTDYLTGTFKGDYWGQGTQVTVSS” as the sequence, how does the “polyreactivity (PSR sort gate)” value read?
Answer: low polyreactivity

Question: Which “polyreactivity (PSR sort gate)” value does the source give for “QVQHVESVVGFVQAGASLRLSCASSVLILAQNTMGWYRQAPGKERELVAAISWRGGNTYYADSVKGRLTISRDNAKNTVYLKMNILKPEDTAVDYCAARRPRRIVDYDYWGQGTQVTVSS” here?
Answer: high polyreactivity

Question: Which “polyreactivity (PSR sort gate)” value does the source give for “QVQHVESWRGLVQAGGSLRLSCAASGSTNYPNAMGWSRQAPGKERELVPAITSGGSTYYADSVKGRFTISRDNAKNTVYLPMNSLKPEDTAVYYCAAQRRYHQDTTIGPGNYYYWGQGTQVTVSS” here?
Answer: low polyreactivity

Question: With “QVQHVESWRGLVQAGGSLRLSCDASGSIIQIYAMGWYRQAPGKVRELVASITWSGGSPYYADSVKGRFTISRDNAKNTVYLQMNSLKPEDTAVFYCATDKLYGRTVRMDYWGQGTQVTVSS” as the sequence, how does the “polyreactivity (PSR sort gate)” value read?
Answer: low polyreactivity

Question: For “QVQIEDSGGGLVQAGGSLRLSCAASGSTLRGYAMGWYRHAPGKERELVAAISKNGGSTYYADSVKGRFTISRDKAKYTVYLQMNSLKPEDTAVYYCAAVGYYTKRRFGYWGQGTQVTVSS”, which “polyreactivity (PSR sort gate)” value is on record?
Answer: high polyreactivity

Question: Which “polyreactivity (PSR sort gate)” value does the source give for “QVQIEESGGALVQEGGSLRLSRAASGRTFYYYAMGWYRQAPGKERELVAGIDFSSGSTYYADSVKGRFTISRDNAKNTVYLQMNSLKPEDTAVYYCAAKWHVRGRGARYRYDYDYWGQGTQVTVSS” here?
Answer: low polyreactivity

Question: With “QVQIVDSGGGLVQAGGRLRLSCAPSGITFVYYAMGWYRQAPGKEREFVASITSNGVSTYYADSVKGRYTISRDNAMNTVYLQMNSLKPEDTAVYYCAADGTYRNYWYDYWGQGTQVTVSS” as the sequence, how does the “polyreactivity (PSR sort gate)” value read?
Answer: low polyreactivity

Question: Which “polyreactivity (PSR sort gate)” value does the source give for “QVQIVDSGGGLVQAGGSLRLSCAASGRNFGYYAMGWYRQAPGKERELVAAISYSGGSTYYADSVKGRFTISRDMAKNTVYCQMNSLKPEDTAVYYCAAPGRWPQRYGYWGLGTQVTVSS” here?
Answer: high polyreactivity

Question: For “QVQIVDSGGGLVQAGGSLRLTCAASAITFSTNALGWNRQAPGKERELVAAITSVTSTYYADSVKGRFTISRDNAKNTVYLLMKSLKTEYTAVYYWAARLSRWPYFYEYNYWGQGTEVTVSS”, which “polyreactivity (PSR sort gate)” value is on record?
Answer: low polyreactivity

Question: Which “polyreactivity (PSR sort gate)” value does the source give for “QVQIVESCGGLVQAGGSLRLICAATGSIFLRNTMGWYRQAPAKQRELVASIDWSGGITYYADSVKGRFTISRDNAKNTVYLQMNSLKQEDTAVYFCNAVFLYPFNVPTMEYWGQGTQVTVSS” here?
Answer: low polyreactivity

Question: With “QVQIVESGAGLVQAGGSLRLSCAASGIIFPRYAMGWYRQAPGKERELVAAITIGGRTNYGDSVKGRFTISRDNGKNTFYLQMKSLKPEDTAVYYCAAQTFVPYSEYDYWGQGTQVTVSS” as the sequence, how does the “polyreactivity (PSR sort gate)” value read?
Answer: low polyreactivity

Question: With “QVQIVESGGCLVQAGGSLRLSCAASGRTFWYYTMGWYRQAPGKEREFVAAISYSAGNTYYADSVKGRFTISRDNAKNTVYLQMNSLKPEDTAVNYCAVQRGYRSNAYDYWGQGTQVTVSS” as the sequence, how does the “polyreactivity (PSR sort gate)” value read?
Answer: high polyreactivity

Question: Which “polyreactivity (PSR sort gate)” value does the source give for “QVQIVESGGCLVQAGGSLRLSWAASGGIFSTNAMGWYRQAPGKERELVAAISRRGGSTYYADSVKGRFTISRDNAKNTGYLQMNSLKPEDTAVYYCNKYLRLFSYGRGYDYWGQGTQVTVSS” here?
Answer: high polyreactivity

Question: With “QVQIVESGGGLFQAGGSLRLSCAASGGIFDFYAMGWYRPATGKEWELVAAITRSGSSTFYADSVKGRFTISRDNAKNTVYLQMNILKPEDTAVYYCAAPYSYFAVYYGYIVEYDYWGQGTQVTVSS” as the sequence, how does the “polyreactivity (PSR sort gate)” value read?
Answer: low polyreactivity

Question: With “QVQIVESGGGLFQAGGSLRLSSAASGNTFDKYAMGWYRQAPGKEREMVAAISSGGRTYYADSVKGRFTISRDNAKNTVYLQMNSLKPEDTAVYYCGKGSAGRGMDSWGQGTQVTVSS” as the sequence, how does the “polyreactivity (PSR sort gate)” value read?
Answer: low polyreactivity

Question: Which “polyreactivity (PSR sort gate)” value does the source give for “QVQIVESGGGLIQEGGSLRLSCAASGSTFYYYAMGWYRPAPGKERELVAAIDRDDRTNYADSVKGRFTSSRDNAQNTVYLQMTSLKPEDTAVYYCAAVEIYEYDYWGQGTQVTVSS” here?
Answer: low polyreactivity

Question: For “QVQIVESGGGLLQAGGSLRLSCAASGGTFPVYAMVWYRQAPGKERELVAAISYSGVTTYYADSVKGRFTISRDNAKNTVYLQINSLKPDDTAVFYCNADWRRWYIFSYDYWGQGTQVTVSS”, which “polyreactivity (PSR sort gate)” value is on record?
Answer: low polyreactivity

Reference: the nanobody polyreactivity screen of Harvey et al. (2022)
